We go through 9 molecules from publication PMC4731787, “Structural basis for the recognition of two consecutive mutually interacting DPF motifs by the SGIP1 μ homology domain” (Scientific Reports, 2016).

T1: SGIP1 μHD (residues 552 to 828) (Homo sapiens, UniProt Q9BQI5)
T1 construct: the SGIP1 μHD (residues 552 to 828); GST (N, cleaved yes); made in house; host or cells: Escherichia coli BL21-Gold (DE3) or Rosetta2
T1 sequence (Q9BQI5 552-828): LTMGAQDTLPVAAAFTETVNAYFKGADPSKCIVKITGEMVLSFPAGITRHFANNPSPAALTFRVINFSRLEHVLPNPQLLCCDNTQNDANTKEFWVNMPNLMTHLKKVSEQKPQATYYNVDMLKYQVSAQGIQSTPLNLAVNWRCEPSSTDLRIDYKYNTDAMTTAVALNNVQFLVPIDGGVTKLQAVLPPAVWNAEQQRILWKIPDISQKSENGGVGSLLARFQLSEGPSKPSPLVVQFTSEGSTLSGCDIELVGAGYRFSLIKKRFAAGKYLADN

T2: SGIP1 µ homology domain (µHD), residues 552 to 828 (human, UniProt Q9BQI5-1 552-828)
T2 construct: pGEX-6P-1 construct cut with 3C protease; also called SGIP1 µHD; human SGIP1 µHD (aa552–828); source: E. coli BL21-Gold (DE3) or Rosetta2, purified (Glutathione Sepharose 4B, 3C protease cleavage, Superdex 200)
T2 sequence (looked up): T1 sequence (Q9BQI5 552-828)

T3: FCHo1 µ homology domain (µHD), residues 623 to 889 (human, UniProt O14526-1 623-889)
T3 construct: also called FCHo1 µHD; human FCHo1 µHD (aa623–889); source: E. coli, expressed and purified in the same manner as the SGIP1 µHD
T3 sequence (looked up): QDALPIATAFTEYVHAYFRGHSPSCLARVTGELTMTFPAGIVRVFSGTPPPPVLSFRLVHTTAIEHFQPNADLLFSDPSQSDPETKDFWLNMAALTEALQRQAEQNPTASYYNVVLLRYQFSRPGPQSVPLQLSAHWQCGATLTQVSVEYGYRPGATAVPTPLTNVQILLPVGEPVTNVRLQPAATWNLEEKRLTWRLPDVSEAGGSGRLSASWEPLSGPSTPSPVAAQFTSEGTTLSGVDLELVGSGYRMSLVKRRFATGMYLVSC

B1: Eps15-640–654 (peptide)
peptide: Ac-YDPFGGDPFKGSDPFA-NH2
notes: artificial N-terminal Tyr; source: synthetic peptide (Eurofins Genomics)
B2: appendage domain of human α-adaptin (residues 711 to 955) (domain or fragment, UniProt O95782-2 711-955, looked up)
chain: IGPPIPEADELLNKFVCKNNGVLFENQLLQIGVKSEFRQNLGRMYLFYGNKTSVQFQNFSPTVVHPGDLQTQLAVQTKRVAAQVDGGAQVQQVLNIECLRDFLTPPLLSVRFRYGGAPQALTLKLPVTINKFFQPTEMAAQDFFQRWKQLSLPQQEAQKIFKANHPMDAEVTKAKLLGFGSALLDNVDPNPENFVGAGIIQTKALQVGCLLRLEPNAQAQMYRLTLRTSKEPVSRHLCELLAQQF
notes: also called α-adaptin appendage domain; source: E. coli, purified in the same manner as for the SGIP1 μHD
B3: Eps15-530–896 (domain or fragment, human, UniProt P42566-1 530-896, looked up)
chain: STSSSETANLNEHVEGQSNLESEPIHQESPARSSPELLPSGVTDENEVTTAVTEKVCSELDNNRHSKEEDPFNVDSSSLTGPVADTNLDFFQSDPFVGSDPFKDDPFGKIDPFGGDPFKGSDPFASDCFFRQSTDPFATSSTDPFSAANNSSITSVETLKHNDPFAPGGTVVAASDSATDPFASVFGNESFGGGFADFSTLSKVNNEDPFRSATSSSVSNVVITKNVFEETSVKSEDEPPALPPKIGTPTRPCPLPPGKRSINKLDSPDPFKLNDPFQPFPGNDSPKEKDPEIFCDPFTSATTTTNKEADPSNFANFSAYPSEEDMIEWAKRESEREEEQRLARLNQQEQEDLELAIALSKSEISEA
notes: also called C-terminal fragment of human Eps15; source: E. coli, purified (Ni Sepharose, thrombin, Glutathione Sepharose, 3C protease, Superdex 200); not shown: GST, N-terminal, cleaved; His tag, C-terminal, cleaved
B4: SGIP1 μ homology domain (residues 552 to 828) (domain or fragment, human, UniProt Q9BQI5-1 552-828, looked up)
chain: T1 sequence (Q9BQI5 552-828)
notes: A SeMet-substituted form (E. coli B834(DE3)) was used only for the structure of the domain alone; also called SGIP1 μHD; μHD; source: E. coli BL21-Gold (DE3) or Rosetta2, purified (Glutathione Sepharose, 3C protease cleavage on the column, Superdex 200)
B5: Eps15-618–648 (domain or fragment, human, UniProt P42566-1 618-648, looked up)
chain: DFFQSDPFVGSDPFKDDPFGKIDPFGGDPFK
notes: source: E. coli, purified in the same manner as for the SGIP1 μHD

Read-outs that look alike come from different tables or passages of the source. Where no end group is shown, it is not given here. GST = glutathione S-transferase fusion tag

Experiment [1] deals with SGIP1 μ homology domain (residues 552 to 828) (human) (UniProt Q9BQI5). Description: ITC; VP-ITC, 25 °C, 50 mM Tris-HCl pH 8.0, 50 mM NaCl; for the majority the μHD (SGIP1, its mutants or FCHo1) in the cell, titrated with Eps15 fragments or peptides, for others the reverse (Supplementary Table 2); repeated twice, global fit with SEDPHAT, single-site or two-site model. In general terms: Isothermal titration calorimetry measures the heat released or taken up as one component is titrated into another.

Experiment [2] addresses T1, SGIP1 μHD (residues 552 to 828). Nature of the experiment: ITC of Eps15 fragments with the SGIP1 μHD. Type of experiment: binding. The settings on record: for Kd: 50 mM Tris-HCl pH 8.0, 50 mM NaCl, global fit of two runs. How it is done: (§1) For the majority of the ITC experiments, the SGIP1 μHD, its mutants, or the FCHo1 μHD, in 50 mM Tris-HCl buffer (pH 8.0) containing 50 mM NaCl, was loaded in the sample cell, in a volume of 1.42 ml, and titrated with various Eps15-derived fragments or peptides in the same buffer, with an initial 5 μl injection and subsequent 10 μl injections, for a total of 25 injections. The titrations were performed while the samples were stirred at 310 r.p.m. at 25 °C. Each injection was followed by an interval of 4 min, to allow baseline stabilization. For the other ITC experiments indicated in Supplementary Table 2, the Eps15-derived fragments or peptides in the sample cell were titrated with the SGIP1 or FCHo1 μHD. All ITC experiments were performed on a VP-ITC microcalorimeter (MicroCal, LLC) and repeated twice, and the data were processed with the program NITPIC[42]. The two data sets from each ITC experiment were analyzed by global weighted least-squares fitting with the program SEDPHAT[43]. Figures for the ITC data were created with the program GUSSI (http://biophysics.swmed.edu/MBR/software.html). To obtain the values of the traditional stoichiometric parameter N in our ITC data analyses (Supplementary Table 2), we used the values of the parameters of the incompetent fractions of proteins and ligands. […] The values of the incompetent fractions are between 0 and 1, whereas the other parameter affecting the traditional parameter N, the number of sites, was fixed as 1 and 2, for the single- and two-site models, respectively. Thus, in the two-site model, the values of N for the first and second sites are identical in our ITC data analyses (Supplementary Table 2).

The next experiment concerns the target SGIP1 µHD A563E. Description: ITC of Eps15 fragments with the SGIP1 μHD A563E mutant. Type of experiment: binding, human. The settings on record: for Kd: 25 °C, 50 mM Tris-HCl pH 8.0, 50 mM NaCl, mutant μHD in cell titrated with fragment, two runs. How it is done: as §1
The target of a further experiment is SGIP1 µHD A565E. Nature of the experiment: ITC of Eps15 fragments with the SGIP1 μHD A565E mutant. The format is binding, human. The following applies: for Kd: 25 °C, 50 mM Tris-HCl pH 8.0, 50 mM NaCl, mutant μHD in cell titrated with fragment, two runs. How it is done:
as §1

The target in experiment [3] is T2, SGIP1 µ homology domain (µHD), residues …. Nature of the experiment: ITC; µHD, µHD mutant or α-adaptin appendage domain in the sample cell, titrated with the Eps15 fragment or peptide; 50 mM Tris-HCl (pH 8.0), 50 mM NaCl, 25 °C; VP-ITC; two data sets fitted globally (NITPIC, SEDPHAT); single-site model. The following applies: both partners purified.
Experiment [4] addresses T3, FCHo1 µ homology domain (µHD), residues …. Described as above. The following applies: both partners purified.
In the experiment “Eps15-530–896” the target is B3. Description: SEC; analytical gel filtration on Superdex 200, 50 mM Tris-HCl pH 8.0, 50 mM NaCl, 5 mM DTT, 5% glycerol; fractions on SDS-PAGE; Eps15-530–896 and μHD mixed 1:2.4; Eps15-530–896, μHD and appendage domain mixed 1:3:6. The following applies: both partners purified. In general terms: SEC sorts molecules by how far they enter the pores of the column.

Experiment [5] addresses B4. Description: ITC; VP-ITC, 25 °C, 50 mM Tris-HCl pH 8.0, 50 mM NaCl; for the majority the μHD (SGIP1, its mutants or FCHo1) in the cell, titrated with Eps15 fragments or peptides, for others the reverse (Supplementary Table 2); repeated twice, global fit with SEDPHAT, single-site or two-site model. The settings on record: both partners purified.
Where [6] appears, read: 25 °C, μHD in cell titrated with fragment, single-site model.
[7] abbreviates: 25 °C, μHD in cell titrated with fragment, single-site model, ± 68.3% confidence interval.
Where [8] appears, read: 25 °C, fragment in cell titrated with μHD, single-site model.
[9] abbreviates: 25 °C, fragment in cell titrated with μHD, two-site model, first site.
Setting [10] is: 25 °C, fragment in cell titrated with μHD, two-site model, second site.

As for “Eps15 two-DPF fragment, Asp of the N-terminal DPF motif replaced with Asn (peptide)”, the fold reduction of the binding against the unreplaced fragment in experiment [1] stood at 3.4 fold.

Turning to “GST-Eps15-628–644: GST-tagged Eps15 fragment, residues 628–644, 3 DPF motifs ({GST}-SDPFKDDPFGKIDPFGG)”, in experiment [2] (setting [6]), the “-TΔS” value is -2.159 kcal/mol and the ΔG is -8.444 kcal/mol. Moreover, in experiment [2] (setting [7]), the ΔH is -6.285 ± 0.144 kcal/mol. Moreover, at SGIP1 µHD A563E, the equilibrium dissociation constant (Kd) entry is “below detection limit”. Also, the Kd result on SGIP1 µHD A565E was “below detection limit”.

As to “GST-Eps15-628–654: GST-tagged Eps15 fragment, residues 628–654, 5 DPF motifs ({GST}-SDPFKDDPFGKIDPFGGDPFKGSDPFA)”, in experiment [2] (setting [6]), the “-TΔS” value was -1.785 kcal/mol and the ΔG is -8.175 kcal/mol. Besides, in experiment [2] (setting [7]), the ΔH was -6.39 ± 0.179 kcal/mol. Further, in the experiment on SGIP1 µHD A563E, the “binding to SGIP1 μHD with Ala563 replaced by Glu (in words)” value is reported as “abolished the binding” and the Kd entry is “below detection limit”. For the same molecule, in the experiment on SGIP1 µHD A565E, the “binding to SGIP1 μHD with Ala565 replaced by Glu (in words)” value is on record as “abolished the binding” and the Kd entry was “below detection limit”.

As for “Eps15 two-DPF fragment, Asp of the C-terminal DPF motif replaced with Asn (peptide)”, in experiment [1], the fold reduction of the binding against the unreplaced fragment came to 2.4 fold.

Regarding B1, in experiment [3], binding was characterised by a dissociation constant (Kd) of 2900 nM and the “stoichiometry N” value turned out to be 0.66. Further, the “stoichiometry N” value in experiment [4] came to 0.64.

For B2, in the experiment with Eps15-530–896, the binding result was “binds”.

For the molecule B3, the Kd worked out at 27300 ± 15700 nM in experiment [2] (25 °C, Eps15 fragment in cell titrated with SGIP1 μHD, two-site model, second site, 68.3% confidence interval, read-out: Kd, second site) and 4500 ± 2200 nM in experiment [2] (25 °C, Eps15 fragment in sample cell titrated with SGIP1 μHD, single-site model, ± 68.3% confidence interval, read-out: Kd). Moreover, the “-TΔS” value was 3.678 kcal/mol in experiment [2] (setting [8]) and -4.297 kcal/mol in experiment [2] (setting [9]). Further, the values for the ΔG in experiment [2] (setting [8]) and in experiment [2] (setting [9]) were -7.296 kcal/mol and -9.374 kcal/mol, respectively. Moreover, the ΔH was -10.974 ± 0.504 kcal/mol in experiment [2] (25 °C, fragment in cell titrated with μHD, single-site model, ± 68.3% confidence interval) and -5.077 ± 0.308 kcal/mol in experiment [2] (25 °C, fragment in cell titrated with μHD, two-site model, first site, ± 68.3% confidence interval). The “-TΔS, second site” value in experiment [2] (setting [10]) turned out to be 2.744 kcal/mol. In addition, the “ΔG, second site” value in experiment [2] (setting [10]) is -6.226 kcal/mol. In addition, the “ΔH, second site” value in experiment [2] (25 °C, fragment in cell titrated with μHD, two-site model, second site, 68.3% confidence interval) is -8.97 ± 1.643 kcal/mol. Besides, the “N (binding ratio of Eps15 fragment to μHD)” value in experiment [2] (fragment in cell titrated with μHD, single-site model, ± 68.3% confidence interval) was found to be 0.76 ± 0.11; in experiment [2] (fragment in cell titrated with μHD, two-site model, first site (N identical for both sites), ± 68.3% confidence interval), 0.96 ± 0.04. In experiment [2] (fragment in cell titrated with μHD, two-site model, second site (N identical for both sites), ± 68.3% confidence interval), the “N, second site” value was found to be 0.96 ± 0.04. In experiment [5], the “Kd of the high-affinity site (two-site model)” value was ~130 nM.

Turning to B4, in the experiment with Eps15-530–896, the binding result is “binds”.

On to B5, for which the Kd in experiment [5] is ~400 nM.

A word on the Kd: it is a measure of binding affinity in units of concentration. For orientation: stoichiometry N means a count of units in the complex or per binding partner.
